Test [1] addresses human HER3 expressed on cells (HEK293 HER3 O/E cells) (human) (UniProt P21860). Briefly: flow cytometry, HEK293 cells overexpressing human HER3, 20 ug/ml antibody, FITC anti-Fc secondary; same antibody on WT HEK293: 0.07. In general terms: A flow cytometer gives signals particle by particle.
The target is the same in test [2]. Description: flow cytometry, HEK293 cells overexpressing human HER3, 20 ug/ml antibody, FITC anti-Fc secondary; same antibody on WT HEK293: 1.68.
A further test concerns the target FcRn (human) (UniProt P55899). Briefly: Bio-Layer Interferometry (determined as described in Example 7).
In the next test the target is FcgRIIIA (F158) (human) (UniProt P08637). The test is described as above.
Test [3] has as its target His-tagged FcγRIIIa (V158) (human) (UniProt P08637). The description is as above.
A further test concerns the target moFcRn (mouse) (UniProt Q61559). The test is described as above.
Another test addresses moFcgRIV. The description is as above.
Test [4] concerns the target human HER3 expressed on cells (HEK293 HER3 O/E cells) (human) (UniProt P21860). Description: flow cytometry on HEK293T HER3 O/E cells, 10 ug antibody as printed, FITC-conjugated anti-Fc secondary.

As to Isotype (antibody), the % Parent (HER3 positive) in test [1] was 0.12%. In addition, the % Parent (HE3 positive) in test [2] was 13.9%.
The term Kd denotes a measure of binding affinity in units of concentration. On to LJM716 (antibody), for which the Kd with FcRn (human) came out at 0.0165 µM; with FcgRIIIA (F158) (human), 5.38 µM; in test [3], 0.705 µM; in the test with moFcRn (mouse), 0.0128 µM; in the test with moFcgRIV it was 0.701 µM.
As to hIgG1 Isotype (antibody), the % Parent (HER3 positive) in test [4] amounted to 0.18%.

The values above are taken from US20250122303A1, “TREATMENT AND PREVENTION OF CANCER USING HER3 ANTIGEN-BINDING MOLECULES” (Hummingbird Bioscience Pte. Ltd., priority 2021, published 2025).
